# Assay results from paper PMC9482650, “Quantitative fragmentomics allow affinity mapping of interactomes” (Nature Communications, 2022).
# T1: SNTB1, Q13884
# T1 sequence (Q13884 107-205, limits assumed, looked up): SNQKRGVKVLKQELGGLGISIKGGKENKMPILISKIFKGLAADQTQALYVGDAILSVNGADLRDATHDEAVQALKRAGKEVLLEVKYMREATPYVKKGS
# T2: GRIP1_3, Q9Y3R0
# T2 sequence (Q9Y3R0 247-346, limits assumed, looked up): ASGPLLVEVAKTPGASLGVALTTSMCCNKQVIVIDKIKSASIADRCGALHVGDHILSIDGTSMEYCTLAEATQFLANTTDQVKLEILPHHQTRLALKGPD
# T3: PDZRN3_1, Q9UPQ7
# T3 sequence (Q9UPQ7 244-349, limits assumed, looked up): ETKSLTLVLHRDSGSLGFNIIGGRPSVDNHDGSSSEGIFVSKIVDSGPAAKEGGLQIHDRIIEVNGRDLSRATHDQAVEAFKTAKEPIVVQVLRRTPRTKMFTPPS
# T4: RADIL, Q96JH8
# T4 sequence (Q96JH8 971-1071, limits assumed, looked up): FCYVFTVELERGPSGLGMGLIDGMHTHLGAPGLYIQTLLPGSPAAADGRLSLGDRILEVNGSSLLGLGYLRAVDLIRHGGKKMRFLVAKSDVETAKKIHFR
# T5: APBA2_2, Q99767
# T5 sequence (Q99767 654-744, limits assumed, looked up): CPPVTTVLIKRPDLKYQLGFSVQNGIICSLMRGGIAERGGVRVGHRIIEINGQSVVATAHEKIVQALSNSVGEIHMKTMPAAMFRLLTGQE
# T6: TX1BP3, O14907
# T6 sequence (O14907 10-122, limits assumed, looked up): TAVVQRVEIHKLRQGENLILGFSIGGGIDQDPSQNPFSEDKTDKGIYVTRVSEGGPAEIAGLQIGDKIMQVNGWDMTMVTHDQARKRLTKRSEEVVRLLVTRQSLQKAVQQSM
# T7: GRIP1_5, Q9Y3R0
# T7 sequence (Q9Y3R0 568-668, limits assumed, looked up): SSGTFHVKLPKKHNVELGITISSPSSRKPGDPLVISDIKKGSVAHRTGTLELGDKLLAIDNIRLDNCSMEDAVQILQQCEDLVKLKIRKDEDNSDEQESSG
# B1: EPHB3, P54753 (peptide)
# chain: QMNQTLPVQV
# Target: MAGI1_1, Q96QZ7
# Sequence (Q96QZ7 1-106): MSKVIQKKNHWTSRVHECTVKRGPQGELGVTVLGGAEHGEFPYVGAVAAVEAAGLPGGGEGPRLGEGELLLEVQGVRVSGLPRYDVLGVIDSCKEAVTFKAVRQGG
# Assay: holdup assay
# Design: key: below the threshold = too weak to quantify, mostly under pKd 3.1 to 4
# Conditions: plain residues with an end cap or a label only (N-terminal biotin on a linker: ado-ado)
row,Binder,pKd
1,B1,below the threshold

# Target: Inadl_1, Q8NI35
# Sequence (Q8NI35 113-229): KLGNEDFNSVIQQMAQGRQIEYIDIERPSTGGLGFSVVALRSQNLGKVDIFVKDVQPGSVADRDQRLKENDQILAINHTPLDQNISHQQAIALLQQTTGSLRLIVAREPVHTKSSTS
# Assay: holdup assay
# Design: key: below the threshold = too weak to quantify, mostly under pKd 3.1 to 4
# Conditions: plain residues with an end cap or a label only (N-terminal biotin on a linker: ado-ado)
row,Binder,pKd
1,B1,below the threshold

# Target: GORASP1, Q9BQQ3
# Sequence (Q9BQQ3 1-208): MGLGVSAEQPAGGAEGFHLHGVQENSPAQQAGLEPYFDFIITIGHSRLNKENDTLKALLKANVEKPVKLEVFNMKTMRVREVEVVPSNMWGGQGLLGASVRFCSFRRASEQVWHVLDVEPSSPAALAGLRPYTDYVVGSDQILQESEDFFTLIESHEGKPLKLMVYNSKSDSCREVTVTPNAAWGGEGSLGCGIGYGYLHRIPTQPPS
# Assay: holdup assay
# Design: key: below the threshold = too weak to quantify, mostly under pKd 3.1 to 4
# Conditions: plain residues with an end cap or a label only (N-terminal biotin on a linker: ado-ado)
row,Binder,pKd
1,B1,3.58

# Target: SNX27, Q96L92
# Assay: holdup assay
# Design: key: below the threshold = too weak to quantify, mostly under pKd 3.1 to 4
# Conditions: plain residues with an end cap or a label only (N-terminal biotin on a linker: ado-ado)
row,Binder,pKd
1,B1,3.86

# Target: SCRIB_3, Q14160
# Sequence (Q14160 999-1103): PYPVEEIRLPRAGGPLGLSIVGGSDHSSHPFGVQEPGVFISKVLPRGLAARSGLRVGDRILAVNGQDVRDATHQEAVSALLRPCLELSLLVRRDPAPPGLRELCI
# Assay: holdup assay
# Design: key: below the threshold = too weak to quantify, mostly under pKd 3.1 to 4
# Conditions: plain residues with an end cap or a label only (N-terminal biotin on a linker: ado-ado)
row,Binder,pKd
1,B1,3.48

# Target: IL16_4, Q14005
# Sequence (Q14005 1229-1329): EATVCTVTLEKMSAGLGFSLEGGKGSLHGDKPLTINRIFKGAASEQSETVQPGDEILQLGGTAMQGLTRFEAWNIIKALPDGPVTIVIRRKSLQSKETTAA
# Assay: holdup assay
# Design: key: below the threshold = too weak to quantify, mostly under pKd 3.1 to 4
# Conditions: plain residues with an end cap or a label only (N-terminal biotin on a linker: ado-ado)
row,Binder,pKd
1,B1,3.77

# Target: PDZRN4_1, Q6ZMN7
# Sequence (Q6ZMN7 213-318): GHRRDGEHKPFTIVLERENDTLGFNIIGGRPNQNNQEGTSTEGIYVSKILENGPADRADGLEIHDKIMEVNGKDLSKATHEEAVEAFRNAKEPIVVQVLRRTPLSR
# Assay: holdup assay
# Design: key: below the threshold = too weak to quantify, mostly under pKd 3.1 to 4
# Conditions: plain residues with an end cap or a label only (N-terminal biotin on a linker: ado-ado)
row,Binder,pKd
1,B1,below the threshold

# Target: T1, SNTB1, Q13884
# Assay: holdup assay
# Design: key: below the threshold = too weak to quantify, mostly under pKd 3.1 to 4
# Conditions: plain residues with an end cap or a label only (N-terminal biotin on a linker: ado-ado)
row,Binder,pKd
1,B1,below the threshold

# Target: LNX1_3, Q8TBB1
# Sequence (Q8TBB1 500-596): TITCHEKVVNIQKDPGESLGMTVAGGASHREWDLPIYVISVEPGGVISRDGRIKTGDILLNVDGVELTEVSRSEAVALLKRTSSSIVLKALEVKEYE
# Assay: holdup assay
# Design: key: below the threshold = too weak to quantify, mostly under pKd 3.1 to 4
# Conditions: plain residues with an end cap or a label only (N-terminal biotin on a linker: ado-ado)
row,Binder,pKd
1,B1,3.61

# Target: DLG4_2, P78352
# Sequence (P78352 155-259): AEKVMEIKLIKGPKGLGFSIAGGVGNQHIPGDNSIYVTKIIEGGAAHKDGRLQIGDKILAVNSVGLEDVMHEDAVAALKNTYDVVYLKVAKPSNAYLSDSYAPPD
# Assay: holdup assay
# Design: key: below the threshold = too weak to quantify, mostly under pKd 3.1 to 4
# Conditions: plain residues with an end cap or a label only (N-terminal biotin on a linker: ado-ado)
row,Binder,pKd
1,B1,3.66

# Target: T2, GRIP1_3, Q9Y3R0
# Assay: holdup assay
# Design: key: below the threshold = too weak to quantify, mostly under pKd 3.1 to 4
# Conditions: plain residues with an end cap or a label only (N-terminal biotin on a linker: ado-ado)
row,Binder,pKd
1,B1,below the threshold

# Target: DLG4_3, P78352
# Sequence (P78352 306-403): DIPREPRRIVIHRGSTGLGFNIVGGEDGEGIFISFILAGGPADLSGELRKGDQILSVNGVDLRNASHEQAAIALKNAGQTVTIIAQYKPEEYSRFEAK
# Assay: holdup assay
# Design: key: below the threshold = too weak to quantify, mostly under pKd 3.1 to 4
# Conditions: plain residues with an end cap or a label only (N-terminal biotin on a linker: ado-ado)
row,Binder,pKd
1,B1,below the threshold

# Target: FRMPD4, Q14CM0
# Sequence (Q14CM0 67-160): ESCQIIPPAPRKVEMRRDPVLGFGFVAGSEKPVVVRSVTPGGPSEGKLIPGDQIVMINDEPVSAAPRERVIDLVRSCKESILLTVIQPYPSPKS
# Assay: holdup assay
# Design: key: below the threshold = too weak to quantify, mostly under pKd 3.1 to 4
# Conditions: plain residues with an end cap or a label only (N-terminal biotin on a linker: ado-ado)
row,Binder,pKd
1,B1,below the threshold

# Target: SCRIB_2, Q14160
# Sequence (Q14160 857-960): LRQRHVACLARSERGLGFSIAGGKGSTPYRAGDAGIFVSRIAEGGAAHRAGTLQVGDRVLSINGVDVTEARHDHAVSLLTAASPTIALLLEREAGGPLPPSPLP
# Assay: holdup assay
# Design: key: below the threshold = too weak to quantify, mostly under pKd 3.1 to 4
# Conditions: plain residues with an end cap or a label only (N-terminal biotin on a linker: ado-ado)
row,Binder,pKd
1,B1,below the threshold

# Target: T3, PDZRN3_1, Q9UPQ7
# Assay: holdup assay
# Design: key: below the threshold = too weak to quantify, mostly under pKd 3.1 to 4
# Conditions: plain residues with an end cap or a label only (N-terminal biotin on a linker: ado-ado)
row,Binder,pKd
1,B1,3.51

# Target: CASK, O14936
# Sequence (O14936 487-570): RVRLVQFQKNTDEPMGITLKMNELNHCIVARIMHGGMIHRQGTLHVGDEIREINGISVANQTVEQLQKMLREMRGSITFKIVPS
# Assay: holdup assay
# Design: key: below the threshold = too weak to quantify, mostly under pKd 3.1 to 4
# Conditions: plain residues with an end cap or a label only (N-terminal biotin on a linker: ado-ado)
row,Binder,pKd
1,B1,below the threshold

# Target: MAGI2_6, Q86UL8
# Sequence (Q86UL8 1141-1229): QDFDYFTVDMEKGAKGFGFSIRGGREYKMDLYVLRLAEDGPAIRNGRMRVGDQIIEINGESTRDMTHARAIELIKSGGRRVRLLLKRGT
# Assay: holdup assay
# Design: key: below the threshold = too weak to quantify, mostly under pKd 3.1 to 4
# Conditions: plain residues with an end cap or a label only (N-terminal biotin on a linker: ado-ado)
row,Binder,pKd
1,B1,below the threshold

# Target: GRIP2_4, Q9C0E4
# Sequence (Q9C0E4 446-548): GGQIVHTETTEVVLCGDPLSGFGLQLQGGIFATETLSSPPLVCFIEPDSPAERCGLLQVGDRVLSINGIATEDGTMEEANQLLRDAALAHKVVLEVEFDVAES
# Assay: holdup assay
# Design: key: below the threshold = too weak to quantify, mostly under pKd 3.1 to 4
# Conditions: plain residues with an end cap or a label only (N-terminal biotin on a linker: ado-ado)
row,Binder,pKd
1,B1,below the threshold

# Target: FRMPD3, Q5JV73
# Sequence (Q5JV73 12-100): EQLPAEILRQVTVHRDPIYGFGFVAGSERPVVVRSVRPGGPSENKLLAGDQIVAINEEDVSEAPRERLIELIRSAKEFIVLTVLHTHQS
# Assay: holdup assay
# Design: key: below the threshold = too weak to quantify, mostly under pKd 3.1 to 4
# Conditions: plain residues with an end cap or a label only (N-terminal biotin on a linker: ado-ado)
row,Binder,pKd
1,B1,below the threshold

# Target: MAGI2_5, Q86UL8
# Sequence (Q86UL8 915-1017): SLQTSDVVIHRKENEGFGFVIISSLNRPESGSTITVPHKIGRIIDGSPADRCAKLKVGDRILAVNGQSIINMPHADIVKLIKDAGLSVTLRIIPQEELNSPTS
# Assay: holdup assay
# Design: key: below the threshold = too weak to quantify, mostly under pKd 3.1 to 4
# Conditions: plain residues with an end cap or a label only (N-terminal biotin on a linker: ado-ado)
row,Binder,pKd
1,B1,below the threshold

# Target: LNX1_2, Q8TBB1
# Sequence (Q8TBB1 371-470): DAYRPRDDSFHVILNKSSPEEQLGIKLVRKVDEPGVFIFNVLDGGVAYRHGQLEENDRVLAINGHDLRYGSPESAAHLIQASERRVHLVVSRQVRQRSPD
# Assay: holdup assay
# Design: key: below the threshold = too weak to quantify, mostly under pKd 3.1 to 4
# Conditions: plain residues with an end cap or a label only (N-terminal biotin on a linker: ado-ado)
row,Binder,pKd
1,B1,4.53

# Target: MAGI1_2, Q96QZ7
# Sequence (Q96QZ7 456-580): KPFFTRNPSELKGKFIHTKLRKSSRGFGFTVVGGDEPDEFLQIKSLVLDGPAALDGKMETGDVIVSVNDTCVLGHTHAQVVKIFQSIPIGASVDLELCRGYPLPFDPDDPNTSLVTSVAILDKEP
# Assay: holdup assay
# Design: key: below the threshold = too weak to quantify, mostly under pKd 3.1 to 4
# Conditions: plain residues with an end cap or a label only (N-terminal biotin on a linker: ado-ado)
row,Binder,pKd
1,B1,below the threshold

# Target: GRIP2_7, Q9C0E4
# Sequence (Q9C0E4 934-1023): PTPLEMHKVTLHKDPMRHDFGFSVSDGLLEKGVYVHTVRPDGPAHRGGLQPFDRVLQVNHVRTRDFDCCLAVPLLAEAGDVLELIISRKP
# Assay: holdup assay
# Design: key: below the threshold = too weak to quantify, mostly under pKd 3.1 to 4
# Conditions: plain residues with an end cap or a label only (N-terminal biotin on a linker: ado-ado)
row,Binder,pKd
1,B1,3.58

# Target: Inadl_6, Q8NI35
# Sequence (Q8NI35 1058-1167): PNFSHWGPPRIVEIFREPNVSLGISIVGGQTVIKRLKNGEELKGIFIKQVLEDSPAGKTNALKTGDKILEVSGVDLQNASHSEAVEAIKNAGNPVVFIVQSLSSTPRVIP
# Assay: holdup assay
# Design: key: below the threshold = too weak to quantify, mostly under pKd 3.1 to 4
# Conditions: plain residues with an end cap or a label only (N-terminal biotin on a linker: ado-ado)
row,Binder,pKd
1,B1,below the threshold

# Target: T4, RADIL, Q96JH8
# Assay: holdup assay
# Design: key: below the threshold = too weak to quantify, mostly under pKd 3.1 to 4
# Conditions: plain residues with an end cap or a label only (N-terminal biotin on a linker: ado-ado)
row,Binder,pKd
1,B1,4.44

# Target: T5, APBA2_2, Q99767
# Assay: holdup assay
# Design: key: below the threshold = too weak to quantify, mostly under pKd 3.1 to 4
# Conditions: plain residues with an end cap or a label only (N-terminal biotin on a linker: ado-ado)
row,Binder,pKd
1,B1,below the threshold

# Target: T6, TX1BP3, O14907
# Assay: holdup assay
# Design: key: below the threshold = too weak to quantify, mostly under pKd 3.1 to 4
# Conditions: plain residues with an end cap or a label only (N-terminal biotin on a linker: ado-ado)
row,Binder,pKd
1,B1,below the threshold

# Target: T7, GRIP1_5, Q9Y3R0
# Assay: holdup assay
# Design: key: below the threshold = too weak to quantify, mostly under pKd 3.1 to 4
# Conditions: plain residues with an end cap or a label only (N-terminal biotin on a linker: ado-ado)
row,Binder,pKd
1,B1,below the threshold

# Target: PICK1, Q9NRD5
# Sequence (Q9NRD5 17-115): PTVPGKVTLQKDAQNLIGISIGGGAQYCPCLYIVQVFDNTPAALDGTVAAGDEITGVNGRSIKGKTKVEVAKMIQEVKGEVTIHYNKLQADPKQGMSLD
# Assay: holdup assay
# Design: key: below the threshold = too weak to quantify, mostly under pKd 3.1 to 4
# Conditions: plain residues with an end cap or a label only (N-terminal biotin on a linker: ado-ado)
row,Binder,pKd
1,B1,4.35

# Target: LNX1_1, Q8TBB1
# Sequence (Q8TBB1 261-371): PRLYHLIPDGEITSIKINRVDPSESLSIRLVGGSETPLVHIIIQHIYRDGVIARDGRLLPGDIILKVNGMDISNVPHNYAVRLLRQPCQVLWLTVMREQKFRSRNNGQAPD
# Assay: holdup assay
# Design: key: below the threshold = too weak to quantify, mostly under pKd 3.1 to 4
# Conditions: plain residues with an end cap or a label only (N-terminal biotin on a linker: ado-ado)
row,Binder,pKd
1,B1,below the threshold
